Results reported in patent US8389575B2, “Control of enzymatic peracid generation” (E.I. du Pont de Nemours and Company, priority 2008, dated 2013).

Key:
[1] = Dependence of specific activity on pH for hydrolysis of triacetin by CE-7 esterases/perhydrolases (cell extracts of E. coli KLP18 transformants); format: biochemical; conditions: 200 mM triacetin, 25° C.
Protocol: A cell extract of an E. coli transformant expressing perhydrolase from Thermotoga neapolitana (KLP18/pSW196), Thermotoga maritima MSB8 (KLP18/pSW207), Bacillus pumilus PS213 (KLP1S/pSW195), Bacillus subtilis BE1010 (KLP18/pSW189), Bacillus subtilis ATCC® 31954™ (KLP18/pSW194), or Bacillus licheniformis ATCC® 14580™ (KLP18/pSW191) was prepared by passing a suspension of cell paste (20 wt % wet cell weight) in 0.05 M potassium phosphate buffer (pH 7.0) containing dithiothreitol (1 mM) twice through a French press having a working pressure of 16,000 psi (˜110 MPa). The crude extract was then centrifuged at 20,000×g to remove cellular debris, producing a clarified cell extract that was assayed for total soluble protein (Bicinchoninic Acid Kit for Protein Determination, Sigma Aldrich catalog #BCA1-KT). A portion of the clarified Thermotoga maritima MSB8 or Thermotoga neapolitana perhydrolase-containing extract was additionally heated for 20 min at 75° C., followed immediately by cooling in an ice/water bath to 5° C. The resulting mixture was centrifuged to remove precipitated protein, and the supernatant collected and assayed for total soluble protein as before.
Reactions (10 mL total volume) containing triacetin (200 mM) and cell extract supernatant (prepared as described above) were run at 25° C. and at a pH between 4.5 and 10.0, using the buffers and buffer concentrations listed in Table 5. The concentration of extract total protein (with or without heat-treatment to denature and precipitate E. coli-derived protein) was chosen to produce an ca. 50 mM decrease in triacetin concentration over 30 min (typically from 0.025 mg/mL to 0.40 mg/mL of total extract protein, dependent on the perhydrolase). A control reaction for each reaction condition was run to determine the concentration of triacetin hydrolyzed in the absence of added extract protein. Samples (100 μL) were removed at predetermined times and immediately added to 297 μL of dd H2O and 3 μL of 6N HCL. The resulting solution was mixed, then filtered using a 30,000 NMWL filter (Millipore) using a microcentrifuge for 2 min at 12,000 rpm. An aliquot of the filtrate (100 μL) was added to 150 μL of 0.417 mM N,N-diethyl meta-toluamide (external standard) in acetonitrile, and the resulting solution analyzed for triacetin by HPLC using a Supelco Discovery C8 column (25 cm×4.0 mm, 5 um; Supelco #59353-U40) and an isocratic mobile phase of 40% acetonitrile/60% distilled water at a flow rate of 1 mL/min. Triacetin was measured by UV detection at 225 nm.

[2] = Peracetic acid production by perhydrolases, control by initial reaction pH in sodium citrate buffer; format: biochemical; conditions: triacetin 100 mM, 0.050 mg/mL extract total protein, 25° C.
Protocol: A cell extract of a transformant expressing perhydrolase from Bacillus pumilus PS213 (KLP18/pSW195), Thermotoga maritima MSB8 (KLP18/pSW207), Thermotoga neapolitana (KLP18/pSW196), or Bacillus subtilis ATCC® 31954™ (KLP18/pSW194) was prepared by passing a suspension of cell paste (20 wt % wet cell weight) in 0.05 M potassium phosphate buffer (pH 7.0) containing dithiothreitol (1 mM) twice through a French press having a working pressure of 16,000 psi (˜110 MPa). The crude extract was then centrifuged at 20,000×g to remove cellular debris, producing a clarified cell extract that was assayed for total soluble protein (Bicinchoninic Acid Kit for Protein Determination, Sigma Aldrich catalog #BCA1-KT). The supernatant was frozen in dry ice and stored at −80° C.
Reactions (10 mL total volume) containing triacetin, hydrogen peroxide and centrifuged cell extract supernatant (prepared as described above) in 50 mM sodium citrate buffer (initial pH 7.2 or 6.5) were run at 25° C. A control reaction for each reaction condition was run to determine the concentration of peracetic acid produced by chemical perhydrolysis of triacetin by hydrogen peroxide in the absence of added extract protein (data not shown). Determination of the concentration of peracetic acid in the reaction mixtures was performed according to the method described by Karst et al., supra.

[3] = initial pH 6.5, sodium citrate 50 mM, H2O2 100 mM
[4] = initial pH 6.5, sodium citrate 50 mM, H2O2 250 mM
[5] = initial pH 7.2, sodium citrate 50 mM, H2O2 100 mM
[6] = initial pH 7.2, sodium citrate 50 mM, H2O2 250 mM

B1: B. pumilus PS213: acetyl xylan esterase with perhydrolase activity from Bacillus pumilus PS213 (SEQ ID NO: 10), cell extract of E. coli KLP18/pSW195 (protein, listed as Bacillus pumilis)
chain: MQLFDLSLEELKKYKPKKTARPDFSDFWKKSLEELRQVEAEPTLESYDYPVKGVKVYRLTYQSFGHSKIEGFYAVPDQTGPHPALVRFHGYNASYDGGIHDIVNWALHGYATFGMLVRGQGGSEDTSVTPGGHALGWMTKGILSKDTYYYRGVYLDAVRALEVIQSFPEVDEHRIGVIGGSQGGALAIAAAALSDIPKVVVADYPYLSNFERAVDVALEQPYLEINSYFRRNSDPKVEEKAFETLSYFDLINLAGWVKQPTLMAIGLIDKITPPSTVFAAYNHLETDKDLKVYRYFGHEFIPAFQTEKLSFLQKHLLLST
- specific activity (mmol triacetin/min/mg total extract protein) ([1]; pH 5.0, sodium acetate 0.15 M): 1.8 mmol triacetin/min/mg total extract protein
- specific activity (mmol triacetin/min/mg total extract protein) ([1]; pH 5.5, sodium acetate 0.15 M): 3.5 mmol triacetin/min/mg total extract protein
- specific activity (mmol triacetin/min/mg total extract protein) ([1]; pH 6.0, sodium citrate 0.15 M): 4.2 mmol triacetin/min/mg total extract protein
- specific activity (mmol triacetin/min/mg total extract protein) ([1]; pH 6.5, sodium citrate 0.15 M): 11.6 mmol triacetin/min/mg total extract protein
- specific activity (mmol triacetin/min/mg total extract protein) ([1]; pH 7.0, potassium phosphate 0.15 M): 30.5 mmol triacetin/min/mg total extract protein
- specific activity (mmol triacetin/min/mg total extract protein) ([1]; pH 7.5, potassium phosphate 0.15 M): 33.7 mmol triacetin/min/mg total extract protein
- specific activity (mmol triacetin/min/mg total extract protein) ([1]; pH 8.0, potassium phosphate 0.20 M): 53.9 mmol triacetin/min/mg total extract protein
- specific activity (mmol triacetin/min/mg total extract protein) ([1]; pH 8.5, Tris(hydroxymethyl)aminomethane 0.20 M): 72.4 mmol triacetin/min/mg total extract protein
- specific activity (mmol triacetin/min/mg total extract protein) ([1]; pH 9.0, Tris(hydroxymethyl)aminomethane 0.20 M): 80.4 mmol triacetin/min/mg total extract protein
- specific activity (mmol triacetin/min/mg total extract protein) ([1]; pH 9.5, glycine 0.20 M): 71.1 mmol triacetin/min/mg total extract protein
- PAA, 1 min (ppm) [2, 3]: 170 ppm
- PAA, 5 min (ppm) [2, 3]: 310 ppm
- PAA, 30 min (ppm) [2, 3]: 830 ppm
- PAA, 1 min (ppm) [2, 4]: 281 ppm
- PAA, 5 min (ppm) [2, 4]: 652 ppm
- PAA, 30 min (ppm) [2, 4]: 1984 ppm
- PAA, 1 min (ppm) [2, 5]: 160 ppm
- PAA, 5 min (ppm) [2, 5]: 322 ppm
- PAA, 30 min (ppm) [2, 5]: 1010 ppm
- PAA, 1 min (ppm) [2, 6]: 465 ppm
- PAA, 5 min (ppm) [2, 6]: 1170 ppm
- PAA, 30 min (ppm) [2, 6]: 2525 ppm
